This is an account of results in US11702475B2, “Cysteine engineered fibronectin type III domain binding molecules” (Janssen Biotech, Inc., priority 2013, dated 2023).

The nature of this data set: Analytical size exclusion chromatography (percent monomer). The data set is classed as physicochemical. The following applies: NEM-conjugated cysteine variants; SEC, Abs280 monomer region 5.5-6 minutes vs oligomer region 4-5.3 minutes. The procedure:
Size exclusion chromatography was used to determine the aggregation state of the FN3 domains binding EGFR. Aliquots (10 μL) of each purified FN3 domain were injected onto a Superdex 75 5/150 column (GE Healthcare) at a flow rate of 0.3 mL/min in a mobile phase of PBS pH 7.4. Elution from the column was monitored by absorbance at 280 nm.
The percent monomer for each protein was determined by integrating the Abs280 signal and comparing the peak in the monomer region (5.5-6 minutes) to the peaks in the oligomer region (4-5.3 minutes).
On the technique in general: In gel filtration, larger molecules generally elute earlier.

B1: L7C (conjugate)
chain: LPAPKNCVVSEVTEDSARLSWDDPWAFYESFLIQYQESEKVGEAIVLTVPGSERSYDLTGLKPGTEYTVSIYGVHNVYKDTNMRGLPLSAIFTT
modifications: left off: small tags and cut ends
B1 returned a Percent monomer of 93%.

B2: K79C (conjugate)
chain: LPAPKNLVVSEVTEDSARLSWDDPWAFYESFLIQYQESEKVGEAIVLTVPGSERSYDLTGLKPGTEYTVSIYGVHNVYCDTNMRGLPLSAIFTT
modifications: left off: small tags and cut ends
Molecule B2 had a Percent monomer of 100%.

B3: V77C (conjugate)
chain: LPAPKNLVVSEVTEDSARLSWDDPWAFYESFLIQYQESEKVGEAIVLTVPGSERSYDLTGLKPGTEYTVSIYGVHNCYKDTNMRGLPLSAIFTT
modifications: left off: small tags and cut ends
B3 yielded a Percent monomer of 92%.

B4: Y28C (conjugate)
chain: LPAPKNLVVSEVTEDSARLSWDDPWAFCESFLIQYQESEKVGEAIVLTVPGSERSYDLTGLKPGTEYTVSIYGVHNVYKDTNMRGLPLSAIFTT
modifications: left off: small tags and cut ends
Turning to B4, the Percent monomer turned out to be 92%.

B5: P2C (conjugate)
chain: LCAPKNLVVSEVTEDSARLSWDDPWAFYESFLIQYQESEKVGEAIVLTVPGSERSYDLTGLKPGTEYTVSIYGVHNVYKDTNMRGLPLSAIFTT
modifications: left off: small tags and cut ends
Molecule B5 yielded a Percent monomer of 86%.

B6: A3C (conjugate)
chain: LPCPKNLVVSEVTEDSARLSWDDPWAFYESFLIQYQESEKVGEAIVLTVPGSERSYDLTGLKPGTEYTVSIYGVHNVYKDTNMRGLPLSAIFTT
modifications: left off: small tags and cut ends
On to B6, for which the Percent monomer came to 100%.

B7: F31C (conjugate)
chain: LPAPKNLVVSEVTEDSARLSWDDPWAFYESCLIQYQESEKVGEAIVLTVPGSERSYDLTGLKPGTEYTVSIYGVHNVYKDTNMRGLPLSAIFTT
modifications: left off: small tags and cut ends
For B7, the Percent monomer worked out at 57%.

B8: Y78C (conjugate)
chain: LPAPKNLVVSEVTEDSARLSWDDPWAFYESFLIQYQESEKVGEAIVLTVPGSERSYDLTGLKPGTEYTVSIYGVHNVCKDTNMRGLPLSAIFTT
modifications: left off: small tags and cut ends
The molecule B8 had a Percent monomer of 90%.

B9: D80C (conjugate)
chain: LPAPKNLVVSEVTEDSARLSWDDPWAFYESFLIQYQESEKVGEAIVLTVPGSERSYDLTGLKPGTEYTVSIYGVHNVYKCTNMRGLPLSAIFTT
modifications: left off: small tags and cut ends
Molecule B9 displayed a Percent monomer of 79%.

B10: W25C (conjugate)
chain: LPAPKNLVVSEVTEDSARLSWDDPCAFYESFLIQYQESEKVGEAIVLTVPGSERSYDLTGLKPGTEYTVSIYGVHNVYKDTNMRGLPLSAIFTT
modifications: left off: small tags and cut ends
As to B10, the Percent monomer is listed as 76%.

B11: N76C (conjugate)
chain: LPAPKNLVVSEVTEDSARLSWDDPWAFYESFLIQYQESEKVGEAIVLTVPGSERSYDLTGLKPGTEYTVSIYGVHCVYKDTNMRGLPLSAIFTT
modifications: left off: small tags and cut ends
Molecule B11 yielded a Percent monomer of 94%.

B12: D23C (conjugate)
chain: LPAPKNLVVSEVTEDSARLSWDCPWAFYESFLIQYQESEKVGEAIVLTVPGSERSYDLTGLKPGTEYTVSIYGVHNVYKDTNMRGLPLSAIFTT
modifications: left off: small tags and cut ends
B12 yielded a Percent monomer of 100%.

B13: S55C (conjugate)
chain: LPAPKNLVVSEVTEDSARLSWDDPWAFYESFLIQYQESEKVGEAIVLTVPGSERCYDLTGLKPGTEYTVSIYGVHNVYKDTNMRGLPLSAIFTT
modifications: left off: small tags and cut ends
B13: the Percent monomer is reported as 100%.

B14: S52C (conjugate)
chain: LPAPKNLVVSEVTEDSARLSWDDPWAFYESFLIQYQESEKVGEAIVLTVPGCERSYDLTGLKPGTEYTVSIYGVHNVYKDTNMRGLPLSAIFTT
modifications: left off: small tags and cut ends
Take B14: the Percent monomer is listed as 100%.

B15: H75C (conjugate)
chain: LPAPKNLVVSEVTEDSARLSWDDPWAFYESFLIQYQESEKVGEAIVLTVPGSERSYDLTGLKPGTEYTVSIYGVCNVYKDTNMRGLPLSAIFTT
modifications: left off: small tags and cut ends
Molecule B15 displayed a Percent monomer of 100%.

B16: E43C (conjugate)
chain: LPAPKNLVVSEVTEDSARLSWDDPWAFYESFLIQYQESEKVGCAIVLTVPGSERSYDLTGLKPGTEYTVSIYGVHNVYKDTNMRGLPLSAIFTT
modifications: left off: small tags and cut ends
Molecule B16 displayed a Percent monomer of 100%.

B17: F27C (conjugate)
chain: LPAPKNLVVSEVTEDSARLSWDDPWACYESFLIQYQESEKVGEAIVLTVPGSERSYDLTGLKPGTEYTVSIYGVHNVYKDTNMRGLPLSAIFTT
modifications: left off: small tags and cut ends
B17 displayed a Percent monomer of 97%.

B18: G73C (conjugate)
chain: LPAPKNLVVSEVTEDSARLSWDDPWAFYESFLIQYQESEKVGEAIVLTVPGSERSYDLTGLKPGTEYTVSIYCVHNVYKDTNMRGLPLSAIFTT
modifications: left off: small tags and cut ends
The molecule B18 returned a Percent monomer of 66%.

B19: A26C (conjugate)
chain: LPAPKNLVVSEVTEDSARLSWDDPWCFYESFLIQYQESEKVGEAIVLTVPGSERSYDLTGLKPGTEYTVSIYGVHNVYKDTNMRGLPLSAIFTT
modifications: left off: small tags and cut ends
Take B19: the Percent monomer is given as 95%.

B20: D22C (conjugate)
chain: LPAPKNLVVSEVTEDSARLSWCDPWAFYESFLIQYQESEKVGEAIVLTVPGSERSYDLTGLKPGTEYTVSIYGVHNVYKDTNMRGLPLSAIFTT
modifications: left off: small tags and cut ends
Molecule B20 displayed a Percent monomer of 85%.

B21: P24C (conjugate)
chain: LPAPKNLVVSEVTEDSARLSWDDCWAFYESFLIQYQESEKVGEAIVLTVPGSERSYDLTGLKPGTEYTVSIYGVHNVYKDTNMRGLPLSAIFTT
modifications: left off: small tags and cut ends
B21 registered a Percent monomer of 88%.

B22: V46C (conjugate)
chain: LPAPKNLVVSEVTEDSARLSWDDPWAFYESFLIQYQESEKVGEAICLTVPGSERSYDLTGLKPGTEYTVSIYGVHNVYKDTNMRGLPLSAIFTT
modifications: left off: small tags and cut ends
Take B22: the Percent monomer is given as 100%.
